Substitutions are numbered along the chain they refer to.
How the values were obtained:
streptavidin = molecular target: T1, streptavidin (UniProt P22629 37-163, limits assumed); assay: ELISA, soluble Fab on streptavidin-coated control well without peptide
T1 construct: control well without peptide
Procedure: (§1) The wells of a microtiter plate were coated with 200 ng streptavidin protein in 100 μL Coating Buffer (0.1 M NaHCO₃, pH 8.6), and then incubated overnight at 4° C. For negative control, the wells were coated with PBS to determine non-specific binding. After shaking out the coating solution, the wells were washed three times with washing buffer (0.1% Tween 20-PBS). To prevent non-specific binding, 200 μL Blocking Buffer (3% BSA-PBS) was adding and incubated for 2 h at 37° C. After shaking out the blocking buffer, the wells were incubated with 50 ng biotinylated target peptide (SEQ ID NO: 420; see Example 10) in 100 μL Blocking Buffer for 1 h at 37° C. The control well was incubated with only 100 μL Blocking Buffer for 1 h at 37° C. After shaking out the biotinylated target peptide or buffer solution, the wells were washed 3 times with the washing buffer (0.1% Tween 20-PBS). Then 100 μL supernatant containing soluble Fab were added and incubated for 2 h at 37° C. Following three washes with washing buffer (0.1% Tween 20-PBS) for 3 times, 100 μL/well HRP conjugate of mouse anti-Flag tag mAb (Sigma A8592, 1:5000) diluted in Blocking Buffer were added and incubated for 1 h at 37° C. After washings, 3,3′,5,5′-tetramethylbenzidine (TMB) (Sigma) were added for 5 to 30 min at room temperature. The reaction was stopped by adding 50 μL/well of 1 M H₂SO₄.

[1] = molecular target: T2, biotinylated CCR8 peptide (human, N-terminal biotin); assay: ELISA, soluble Fab on biotinylated CCR8 peptide captured on streptavidin
T2 construct: first 34 residues of human CCR8 plus a C-terminal K; also called biotinylated target peptide
Procedure: as §1

CCR8 SNAP-tag = CCR8 SNAP-tag (human, UniProt P51685 1-355, SNAP-tag labelled with Lumi4-Terbium); assay: cell-based or functional assay

T1 sequence (P22629 37-163 limits assumed): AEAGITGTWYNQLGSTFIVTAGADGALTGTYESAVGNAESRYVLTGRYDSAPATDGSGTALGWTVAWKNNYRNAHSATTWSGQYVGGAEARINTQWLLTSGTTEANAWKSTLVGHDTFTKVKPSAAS

B1: 3-55 (Fab, V domains shown)
VH: QVQLQQSGPGLVKPSQTLSLTCAISGDSVSSSTAAWNWIRLSPSRGLEWLGRTYYRSKWYNDYAVSVKSRINISPDTSKNQFSLQLNSVTPEDTGVYYCARGYSRSMDVWGKGTLVTVSS
VL: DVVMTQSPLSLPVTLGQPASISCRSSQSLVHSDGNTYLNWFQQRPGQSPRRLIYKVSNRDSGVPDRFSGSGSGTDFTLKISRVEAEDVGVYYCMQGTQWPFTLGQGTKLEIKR
notes: soluble Fab from phage display library huFabL-4, Flag tag
Optical Density (streptavidin): 0.07 OD450 | Optical Density [1]: 2.34 OD450

B2: Ref #3 (antibody, human IgG1, V domains shown)
VH: QVQLVQSGAEVKKPGASVKVSCKASGYTFTSYYMHWVRQAPGQGLEWMGIINPSGGSTSYAQKFQGRVTMTRDTSTSTVYMELSSLRSEDTAVYYCARAVRNRFRFDYWGQGTLVTVSS
VL: QSALTQPASVSGSPGQSITISCTGTSSDVGSYNLVSWYQQHPGKAPKLMIYEVSKRPSGVSNRFSGSKSGNTASLTISGLQAEDEADYYCSSYAGSSTFVVFGGGTKLTVL
% of internalization at 1 µg/ml mAb (HTRF) (CCR8 SNAP-tag): 100% | % of internalization at 10 µg/ml mAb (HTRF) (CCR8 SNAP-tag): 90%

B3: 3-57 (Fab, V domains shown)
VH: QMQLVQSGAEVKKPGASVKVSCKASGYTFTSYYMHWVRQAPGQGLEWMGIINPSGGSTSYAQKFQGRVTMTRDTSTSTVYMELSSLRSEDTAVYYCARAGVRGVFGMDVWGKGTLVTVSS
VL: QSALTQPASVSGSPGQSITISCTGTSSDLGAYNYVSWYQQHPGKAPRLMIYDVSKRPSGVPDRFSGSKSDNTASLTISGLQAEDEADYYCSSYTSSSTLVFGGGTKVTVLS
notes: as for B1
Optical Density (streptavidin): 0.1 OD450 | Optical Density [1]: 2.39 OD450

B4: 3-64 (Fab, V domains shown)
VH: QLQLQESGGGLVQPGGSLRLSCAASGFTFSSYAMSWVRQAPGKGLEWVSAISGSGGSTYYADSVKGRFTISRDNSKNTLYLQMNSLRAEDTAVYYCASGHSSHAFEIWGQGTTVTVSS
VL: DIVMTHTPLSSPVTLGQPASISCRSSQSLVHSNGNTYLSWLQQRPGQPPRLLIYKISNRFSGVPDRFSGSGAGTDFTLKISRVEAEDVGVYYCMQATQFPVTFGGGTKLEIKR
notes: as for B1
Optical Density (streptavidin): 0.07 OD450 | Optical Density [1]: 3.64 OD450

B5: 3-54 (Fab, V domains shown)
VH: QVQLVQSGAEVKKPGASVKVSCKASGYTFSGYYIHWVRQAPGQGLEWMGWINPNSGGTNYAQNFQGRVTMTRDTSISTAYMELSRLRSDDTAMYYCARGNGAMDVWGRGTLVTVSS
VL: DVVMTQSPLSLPVTSGKPASISCRSSQSLLHSNGYNYLDWYLQKPGQSPQLLIYLGSNRASGVPDRFSGSGSGTDFTLKISRVEAEDVGVYYCMQGTYWPRTFGQGTKVEIKR
notes: as for B1
Optical Density (streptavidin): 0.08 OD450 | Optical Density [1]: 2.76 OD450

B6: 3-60 (Fab, V domains shown)
VH: QVQLVQSGGGVVQPGRSLRLSCAASGFTFSSYAMHWVRQAPGKGLEWVAVISYDGSNKYYADSVKGRFTISRDNAKNSLYLQMNSLRAEDTAVYYCAREQAARPTLGAFDIWGKGTTVTVSS
VL: B5 VL with S15P, K17E, Y35N, D39A, I53M, T97I, Y98H, W99L, R101L, Q105G
notes: as for B1
Optical Density (streptavidin): 0.06 OD450 | Optical Density [1]: 3.66 OD450

B7: 3-66 (Fab, V domains shown)
VH: QVQLVESGGGVVQPGRSLRLSCAASGFPFRTYGMHWVRQAPGKGLEWVSSISSSSSYIYYADSVKGRFTISRDNAKNSLELQMNSLRAEDTAVYYCARTTRGAFDIWGKGTMVTVSS
VL: LSSELTQDPAVSVALGQTVRITCQGDSLRSYYASWYQQKPGQAPLLVIYGRNNRPSGIPDRFSGSSSGNTASLTITGAQAEDEADYYCNSRDSSGVPFGTGTQLTVLS
notes: as for B1
Optical Density (streptavidin): 0.1 OD450 | Optical Density [1]: 2.56 OD450

B8: 3-63 (Fab, V domains shown)
VH: QVQLQESGGGVVQPGRSLRLSCAASGFTFSSYGMHWVRQAPGKGLEWVAVISYDGSNKYYADSVKGRFTISRDNSKNTLYLQMNSLRAEDTAVYYCARDRPGGMDVWGKGTMVTVSS
VL: DVVMTQSPLSLPVTLGQPASISCRSSQSLVHSNGNTYLTWFQQRPGQSPRRLIYKVSNRDSGVPDRFSGSGSGTDFTLKISRVEAEDVGVYYCMQGTRWYTFGQGTKLEIKR
notes: as for B1
Optical Density (streptavidin): 0.09 OD450 | Optical Density [1]: 3.66 OD450

B9: 3-65 (Fab, V domains shown)
VH: QVTLKESGGGVVQPGRSLRLSCAASEFTFRNYAMHWVRQAPGKGLEWVAVISYDGSNKYYADSVKGRFTISRDISKNMVFLQMNSLRADDTAVYYCARGTFLAYWGQGTLVTVSS
VL: EIVLTQSPLSLPVTLGQPASISCRSSQSLVHSDGNTYLSWFQQRPGQSPRRLIYKVSNRDSGVPDRFSGSGSGTDFTLKISRVEAEDVGVYYCMQGIHLPLTFGGGTKLEIKR
notes: as for B1
Optical Density (streptavidin): 0.07 OD450 | Optical Density [1]: 3.29 OD450

B10: 3-62 (Fab, V domains shown)
VH: QVQLQQSGPGLVKPSQTLSLTCAISGDSVSNNSAAWNWIRQSPSRGLEWLGRTYYRSKWYTDYAVSVKSRITINPDTSKNQFSLQLNSVTPEDTAVYYCARASGYSSGQVEYWGKGTLVTVSS
VL: QSVLTQPPSVSAAPGQKVTISCSGSSSNIGNNYISWYQQVPGTAPKLLIYGNNKRPSGIPARFSGSKSGTSATLDITGLQIGDEADYYCGTWESSLRAVVFGGGTKLTVLG
notes: as for B1
Optical Density (streptavidin): 0.07 OD450 | Optical Density [1]: 3.6 OD450

B11: Ref #4 (antibody, human IgG1, V domains shown)
VH: EVQLVESGGGLVQPGGSLKLSCAASGFTFNTYAMNWVRQASGKGLEWVARIRSKANNYATYYADSVKDRFTISRDDSKNTLYLQMNNLKTEDTAVYYCVRDRSRGEDYAMDYWGQGTLVTVSS
VL: DIVMTQSPLSLPVTPGEPASISCRSSKSLLHSNANTYLYWFLQKPGQSPQLLIYRMSNLASGVPDRFSGSGSGTAFTLKISRVEAEDVGVYYCMQHLEYPFTFGQGTKLEIK
% of internalization at 1 µg/ml mAb (HTRF) (CCR8 SNAP-tag): 95% | % of internalization at 10 µg/ml mAb (HTRF) (CCR8 SNAP-tag): 103%

B12: 3-61 (Fab, V domains shown)
VH: QVQLVESGAEVKKPGASVKVSCKASGYTFTSYYMHWVRQAPGQGLEWMGIINPSGGGTKYAQSLQGRVTMTRDTSTSTVYMELNSLTSEDTAVYYCARGGTPSGLDYWGKGTLVTVSS
VL: DIQMTQSPSSLSASVGDRVTITCRASQGISNYLAWYQQKPGKVPKLLIYAASTLQSGVPSRFSGSGSGTDFTLTISSLQPEDVATYYCQKYNSAPLTFGGGTKVEIKR
notes: as for B1
Optical Density (streptavidin): 0.06 OD450 | Optical Density [1]: 2.43 OD450

B13: 3-56 (Fab, V domains shown)
VH: EVQLVQSGGGVVQPGRSLRLSCAASGFTFSTYGMHWVRQAPGKGLEWVAVISYDGSKKYYADSVKGRFTISRDNSRNTVYLQMDSLRSEDTAVYYCAKDLSWPVRRLDVWGKGTMVTVSS
VL: EIVLTQSPLSLPVTLGQPASISCRSSQSLVYSTGNTYLNWFHQRPGQSPRRLIYQVSNRDSGVPDRFSGSGSGTDFTLKISRVEADDVGVYYCMQGTHWPPTFGQGTKVEIKR
notes: as for B1
Optical Density (streptavidin): 0.08 OD450 | Optical Density [1]: 2.35 OD450

B14: 3-59 (Fab, V domains shown)
VH: GVQLVQSGGGLVQPGGSLRLSCAASGFTFSSYSMNWVRQAPGKGLEWVAVISYDESNKYYADSVKGRFTISRDNSKNTLYLQMNSLRAEDTAVYYCAPGGSYHDYWGKGTLVTVSS
VL: B13 VL with V30A, Y31H, T33N, H42Q, Q55K, T97S
notes: as for B1
Optical Density (streptavidin): 0.06 OD450 | Optical Density [1]: 1.4 OD450

B15: 3-75 (Fab, V domains shown)
VH: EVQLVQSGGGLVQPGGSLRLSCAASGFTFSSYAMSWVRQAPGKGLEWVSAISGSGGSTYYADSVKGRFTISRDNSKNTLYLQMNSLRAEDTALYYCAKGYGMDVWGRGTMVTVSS
VL: LPMLTQPPSVSGTPGQRVTISCSGSTSNIGSRPVNWYQQLPGTAPKLLIYRNYQRPSGVPDRFSGSKSGTSASLAISGLRSEDEADYYCAAWDDSLSGWVFGGGTKLTVLG
notes: as for B1
Optical Density (streptavidin): 0.08 OD450 | Optical Density [1]: 3.67 OD450

— patent US20260234276A1 (DOMAIN THERAPEUTICS, published 2026)
